The target in this assay is receptor of interferon alpha (printed only as 'receptor'), on Daudi cells. Nature of the assay: cell-based or functional assay.

Here are results for one substance from patent US8940501.

“commercially available IFNα (from UniProt P01563 24-188) (ligand)” had an IC50 (pg/mL), inhibition of Daudi cell proliferation of 15.5 pg/mL.
